Experiments:
Aβ1-40 peptide = experiment: ELISA, nonbiotinylated peptide on plate
Aβ1-42 peptide = experiment: ELISA, nonbiotinylated peptide on plate
Aβ1-42 peptide, sequence (peptide, as listed by the source): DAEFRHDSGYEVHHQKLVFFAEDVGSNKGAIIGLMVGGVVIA

Aβ1-40 peptide, sequence (peptide, as listed by the source): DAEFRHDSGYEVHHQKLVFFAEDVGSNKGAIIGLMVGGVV

Binder | A450 ELISA (Aβ1-40 peptide) [A450] | A450 ELISA (Aβ1-42 peptide) [A450]
6G heavy chain variant 7D (N101C) (antibody, V domains shown) VH: QVQLVQSGAEVKKPGASVKVSCKASGYTFTTYAIHWVRQAPGQGLEWMGFTSPYSGVSNYNQKFKGRVTMTRDTSTSTVYMELSSLRSEDTAVYYCARFDCYDRGYVRDYWGQGTLVTVS VL: DIVMTQSPDSLAVSLGERATINCRASESVDNDRISFLNWYQQKPGQPPKLLIYAATKQGTGVPDRFSGSGSGTDFTLTISSLQAEDVAVYYCQQSKEFPWSFGGGTKVEIKR | 0.23 | 0.31
6G heavy chain variant 9E (N101R) (antibody, V domains shown) VH: QVQLVQSGAEVKKPGASVKVSCKASGYTFTTYAIHWVRQAPGQGLEWMGFTSPYSGVSNYNQKFKGRVTMTRDTSTSTVYMELSSLRSEDTAVYYCARFDRYDRGYVRDYWGQGTLVTVS VL: DIVMTQSPDSLAVSLGERATINCRASESVDNDRISFLNWYQQKPGQPPKLLIYAATKQGTGVPDRFSGSGSGTDFTLTISSLQAEDVAVYYCQQSKEFPWSFGGGTKVEIKR | 0.22 | 
6G light chain variant 7E (Q94R) (antibody, V domains shown) VH: QVQLVQSGAEVKKPGASVKVSCKASGYTFTTYAIHWVRQAPGQGLEWMGFTSPYSGVSNYNQKFKGRVTMTRDTSTSTVYMELSSLRSEDTAVYYCARFDNYDRGYVRDYWGQGTLVTVS VL: DIVMTQSPDSLAVSLGERATINCRASESVDNDRISFLNWYQQKPGQPPKLLIYAATKQGTGVPDRFSGSGSGTDFTLTISSLQAEDVAVYYCQRSKEFPWSFGGGTKVEIKR |  | 0.18
6G light chain variant 5B (Q94G) (antibody, V domains shown) VH: QVQLVQSGAEVKKPGASVKVSCKASGYTFTTYAIHWVRQAPGQGLEWMGFTSPYSGVSNYNQKFKGRVTMTRDTSTSTVYMELSSLRSEDTAVYYCARFDNYDRGYVRDYWGQGTLVTVS VL: DIVMTQSPDSLAVSLGERATINCRASESVDNDRISFLNWYQQKPGQPPKLLIYAATKQGTGVPDRFSGSGSGTDFTLTISSLQAEDVAVYYCQGSKEFPWSFGGGTKVEIKR |  | 0.14
6G light chain variant 7F (Q94K) (antibody, V domains shown) VH: QVQLVQSGAEVKKPGASVKVSCKASGYTFTTYAIHWVRQAPGQGLEWMGFTSPYSGVSNYNQKFKGRVTMTRDTSTSTVYMELSSLRSEDTAVYYCARFDNYDRGYVRDYWGQGTLVTVS VL: DIVMTQSPDSLAVSLGERATINCRASESVDNDRISFLNWYQQKPGQPPKLLIYAATKQGTGVPDRFSGSGSGTDFTLTISSLQAEDVAVYYCQKSKEFPWSFGGGTKVEIKR |  | 0.19

Second part, the binder after the results:

A450 ELISA (Aβ1-40 peptide) [A450] | A450 ELISA (Aβ1-42 peptide) [A450] | Binder
 | 0.2 | 6G light chain variant 6E (E97P) (antibody, V domains shown) VH: QVQLVQSGAEVKKPGASVKVSCKASGYTFTTYAIHWVRQAPGQGLEWMGFTSPYSGVSNYNQKFKGRVTMTRDTSTSTVYMELSSLRSEDTAVYYCARFDNYDRGYVRDYWGQGTLVTVS VL: DIVMTQSPDSLAVSLGERATINCRASESVDNDRISFLNWYQQKPGQPPKLLIYAATKQGTGVPDRFSGSGSGTDFTLTISSLQAEDVAVYYCQQSKPFPWSFGGGTKVEIKR
 | 0.12 | 6G light chain variant 10E (S95L) (antibody, V domains shown) VH: QVQLVQSGAEVKKPGASVKVSCKASGYTFTTYAIHWVRQAPGQGLEWMGFTSPYSGVSNYNQKFKGRVTMTRDTSTSTVYMELSSLRSEDTAVYYCARFDNYDRGYVRDYWGQGTLVTVS VL: DIVMTQSPDSLAVSLGERATINCRASESVDNDRISFLNWYQQKPGQPPKLLIYAATKQGTGVPDRFSGSGSGTDFTLTISSLQAEDVAVYYCQQLKEFPWSFGGGTKVEIKR
0.21 |  | 6G heavy chain variant 8H (N101H) (antibody, V domains shown) VH: QVQLVQSGAEVKKPGASVKVSCKASGYTFTTYAIHWVRQAPGQGLEWMGFTSPYSGVSNYNQKFKGRVTMTRDTSTSTVYMELSSLRSEDTAVYYCARFDHYDRGYVRDYWGQGTLVTVS VL: DIVMTQSPDSLAVSLGERATINCRASESVDNDRISFLNWYQQKPGQPPKLLIYAATKQGTGVPDRFSGSGSGTDFTLTISSLQAEDVAVYYCQQSKEFPWSFGGGTKVEIKR

Reference: US20090022728A1
